According to patent US12540174 (NASCENT BIOTECH, dated 2026):

What was measured:
[1] = molecular target: T1, recombinant human vimentin (human, UniProt P08670 1-466, limits assumed); assay: BLI, Octet HTX, 25 C; pritumumab on anti-human-Fc (AHC) biosensors, recombinant human vimentin as analyte, 1:1 model
T1 construct: also called recombinant vimentin
Method: (§1) To determine binding affinity of the antibody Pritumumab for vimentin. Octet HTX was employed to measure the antibody binding to human vimentin. Binding experiments were performed on Octet HTX at 25° C. Pritumumab (10 ug/ml) was loaded onto Anti-Human-Fc (AHC) biosensors. Loaded sensors were dipped into a serial of antigen dilutions (recombinant human vimentin) (300 nM start, 1:3 down, 7 points). Kinetic constants were calculated using a monovalent (1:1) model.

[2] = molecular target: T2, antigen of the potency binding ELISA of Example 1 (not named); assay: binding (potency) ELISA, OD 450 nm against Log10 [mAb]; reference standard (tox) lot stored in polypropylene cryovial 1; coated antigen not named; the table cell has no unit, ug/ml is taken from the concentration axis
T2 construct: kept apart from m2 so as not to guess

[3] = molecular target: T2, antigen of the potency binding ELISA of …; assay: binding ELISA (potency assay), antigen not named; lot stored in glass serum containers
[4] = molecular target: T2, antigen of the potency binding ELISA of …; assay: binding (potency) ELISA, OD 450 nm against Log10 [mAb]; reference standard (tox) lot stored in polypropylene cryovial 3; coated antigen not named; the table cell has no unit, ug/ml is taken from the concentration axis
[5] = molecular target: T2, antigen of the potency binding ELISA of …; assay: binding ELISA, antigen not named; third lot (reference standard) stored in PETG serum vial
[6] = molecular target: T1, recombinant human vimentin; assay: BLI, Octet HTX, 25 C; pritumumab on anti-human-Fc (AHC) biosensors, recombinant human vimentin as analyte (300 nM start, 1:3, 7 points), 1:1 model
Method: as §1

[7] = molecular target: T2, antigen of the potency binding ELISA of …; assay: binding (potency) ELISA, OD 450 nm against Log10 [mAb]; clinical drug substance lot stored in polypropylene cryovial; coated antigen not named
[8] = molecular target: T2, antigen of the potency binding ELISA of …; assay: binding ELISA (potency assay), antigen not named; lot stored in PETG serum vial
[9] = molecular target: T2, antigen of the potency binding ELISA of …; assay: binding ELISA (potency assay), antigen not named; lot stored in polypropylene cryovial
[10] = molecular target: T2, antigen of the potency binding ELISA of …; assay: binding (potency) ELISA, OD 450 nm against Log10 [mAb]; reference standard (tox) lot stored in polypropylene cryovial 2; coated antigen not named; the table cell has no unit, ug/ml is taken from the concentration axis
[11] = molecular target: T2, antigen of the potency binding ELISA of …; assay: binding (potency) ELISA, OD 450 nm against Log10 [mAb]; reference standard (tox) lot stored in PETG serum vial; coated antigen not named; the table cell has no unit, ug/ml is taken from the concentration axis
[12] = molecular target: T2, antigen of the potency binding ELISA of …; assay: binding ELISA, antigen not named; third lot (reference standard) stored in polypropylene cryovials, 3 vials

T1 sequence (P08670 whole entry): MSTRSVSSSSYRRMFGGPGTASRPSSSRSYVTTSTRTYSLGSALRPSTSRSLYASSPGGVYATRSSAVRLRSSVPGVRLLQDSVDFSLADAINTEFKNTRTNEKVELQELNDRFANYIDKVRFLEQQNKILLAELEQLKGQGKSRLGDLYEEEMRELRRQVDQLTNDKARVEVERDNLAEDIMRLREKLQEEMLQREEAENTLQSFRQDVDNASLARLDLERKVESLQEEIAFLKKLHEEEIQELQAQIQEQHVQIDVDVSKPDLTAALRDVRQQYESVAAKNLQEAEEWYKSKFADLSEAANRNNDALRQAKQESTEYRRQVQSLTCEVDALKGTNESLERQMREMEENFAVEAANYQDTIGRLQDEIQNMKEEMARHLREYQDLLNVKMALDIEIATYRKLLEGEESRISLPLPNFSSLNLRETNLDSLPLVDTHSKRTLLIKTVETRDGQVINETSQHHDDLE

koff [1]: 0.000443 s⁻¹ | kon [1]: 58700 M⁻¹ s⁻¹ | EC50 [3]: 8.25 µg/mL | EC50 [5]: 11 µg/mL | Kd [6]: 7.55 nM | EC50 [7]: 20.1 µg/mL | EC50 [8]: 9.6 µg/mL | EC50 [9]: 20 µg/mL | EC50 [12]: 37 to 40 µg/mL
B1: pritumumab (antibody, human IgG1, kappa, V domains shown)
VH: EVQLLESGGDLVQPGGSLRLSCAASGFTFSNYAMSWVRQAPGKGLEWVSAITPSGGSTNYADSVKGRFTISRDNSQNTLYLQMNSLRVEDTAVYICGRVPYRSTWYPLYWGQGTLVTVSS
VL: DIQMTQSPSSLSASVGDRVTITCRASQDISNYLAWFQQKPGKAPKSLIYAASSLHSKVPTQFSGSGSGTDFTLTISSLQPEDFATYYCLQYSTYPITFGGGTKVEIKR
notes: Several lots stored in different containers (glass, PETG, polypropylene) were tested; also called Pritumumab human monoclonal antibody
EC50 [2]: 38 µg/mL | EC50 [4]: 40.2 µg/mL | EC50 [10]: 37.1 µg/mL | EC50 [11]: 11.4 µg/mL
